B1: LINE1-full (parent)
chain: UACGUAGGUGGUUUUCCCCUGAUAGUGCUAAGGGGGCCUGGAAGUUUGGACUGGGCAGAGCUCAACACAGCGUGGCAAAGUGGCUGUGGCUAGACUGCCUCUCUGGAUUCCUCGUCACUCAGCAGGGCAUCUCUGAGAGAAAUGCC

The variants in the series derive from B1. In words: self-cleavage, relative activity (ratio to wild type); higher = more cleavage; in vitro, sequencing; the parent is a self-cleaving ribozyme.
As to UACGUAGGUGGUUUUCCCCUGAUAGUGCUAAGGGGGCCUGGAAGUUUGGACUGGGCAGAGCUCAACACAGCGUGGCAAAGUGGCUGUGGCUUGACUGCCUCUCUGGGUUCCUCGUCACUCAGCAGGGCAUCUCUGAGAGAAAUGCC, the self-cleavage was found to be 0.94.

For UACGUAGGUGGUUUUCCCCUGAUAGUGCUAAGGGGGCCUGGAAGUUUGGACUGGGCAGAGCUCAACACAGCGUGGCAAAGUGGCUGUGGCUGGACUGCCUCUCUGGACUCCUCGUCACUCAGCAGGGCAUCUCUGAGAGAAAUGCC, the self-cleavage came out at 1.11.

As to UACGUAGGUGGUUUUCCCCUGAUAGUGCUAAGGGGGCCUGGAAGUUUGGACUGGGCAGAGCUCAACACAGCGUGGCAAAGUGGCUGUGGCUGGACUGCCUCUCUGGAUUCCUCGUCACUCAGCAGAGCAUCUCUGAGAGAAAUGCC, the self-cleavage was 0.13.

Regarding UACGUAGGUGGUUUUCCCCUGAUAGUGCUAAGGGGGCCUGGAAGUUUGGACUGGGCAGAGCUCAACACAGCGUGGCAAAGUGGCUGUGGCUGGACUGCCUCUCUGGAUUCCCCGUCACUCAGCAGGGCAUCUCUGAGAGAAAUGCC, the self-cleavage was found to be 0.13.

Take UACGUAGGUGGUUUUCCCCUGAUAGUGCUAAGGGGGCCUGGAAGUUUGGACUGGGCAGAGCUCAACACAGCGUGGCAAAGUGGCUGUGGCUGGACUGCCUCUCUGGAUUCCACGUCACUCAGCAGGGCAUCUCUGAGAGAAAUGCC: the self-cleavage is 0.09.

For UACGUAGGUGGUUUUCCCCUGAUAGUGCUAAGGGGGCCUGGAAGUUUGGACUGGGCAGAGCUCAACACAGCGUGGCAAAGUGGCUGUGGCUGGACUGCCUCUCUGGAUUCCUCGUCACUCAGCAGGGCAUCUCUGAGAGAAAUACC, the self-cleavage turned out to be 0.09.

For the variant UACGUAGGUGGUUUUCCCCUGAUAGUGCUAAGGGGGCCUGGAAGUUUGGACUGGGCAGAGCUCAACACAGCGUGGCAAAGUGGCUGUGGCUGGACUGCCUCUCUGGAUUCCUCGUCACUCAGCAGGGCAUCACUGAGAGAAAUGCC, the self-cleavage was 0.05.

Consider UACGUAGGUGGUUUUCCCCUGAUAGUGCUAAGGGGGCCUGGAAGUUUGGACUGGGCAGAGCUCAACACAGCGUGGCAAAGUGGCUGUGGCUGGACUGCCUCCCUGGAUUCCUCGUCACUCAGCAGGGCAUCUCUGAGAGAAAUGCC, for which the self-cleavage worked out at 0.11.

On to UACGUAGGUGGUUUUCCCCUGAUAGUGCUAAGGGGGCCUGGAAGUUUGGACUGGGCAGAGCUCAACACAGCGUGGCAAAGUGGCUGUGGCUGGACUGCCUCUCUGGAUUCCUCGUCACUCAGCAGGGCAUCUCAGAGAGAAAUGCC, for which the self-cleavage was determined as 0.

As for UACGUAGGUGGUUUUCCCCUGAUAGUGCUAAGGGGGCCUGGAAGUUUGGACUGGGCAGAGCUCAACACAGCGUGGCAAAGUGGCUGUGGCUUGUCUGCCUCUCUGGAUUCCUCGUCACUCAGCAGGGCAUCUCUGAGAGAAAUGCC, the self-cleavage is 0.32.

For UACGUAGGUGGUUUUCCCCUGAUAGUGCUAAGGGGGCCUGGAAGUUUGGACUGGGCAGAGCUCAACACAGCGUGGCAAAGUGGCUGUGGCUGGACUGCCUCUCCGGAUUCCUCGUCACUCAGCAGGGCAUCUCUGAGAGAAAUGCC, the self-cleavage came to 0.05.

UACGUAGGUGGUUUUCCCCUGAUAGUGCUAAGGGGGCCUGGAAGUUUGGACUGGGCAGAGCUCAACACAGCGUGGCAAAGUGGCUGUGGCUGGACUGCCUCUCUGGAUUCCUCGACACUCAGCAGGGCAUCUCUGAGAGAAAUGCC: the self-cleavage was found to be 0.12.

On to UACGUAGGUGGUUUUCCCCUGAUAGUGCUAAGGGGGCCUGGAAGUUUGGACUGGGCAGAGCUCAACACAGCGUGGCAAAGUGGCUGUGGCUGGACUGCCCCUCUGGAUUCCUCGUCACUCAGCAGGGCAUCUCUGAGAGAAAUGCC, for which the self-cleavage was 0.14.

As for UACGUAGGUGGUUUUCCCCUGAUAGUGCUAAGGGGGCCUGGAAGUUUGGACUGGGCAGAGCUCAACACAGCGUGGCAAAGUGGCUGUGGCUGGACUGCCUCUCUGGAUUCCUCGUCACUCAGCAGGGCAUCUCUGAGAGAAACGCC, the self-cleavage was 0.36.

For UACGUAGGUGGUUUUCCCCUGAUAGUGCUAAGGGGGCCUGGAAGUUUGGACUGGGCAGAGCUCAACACAGCGUGGCAAAGUGGCUGUGGCUUGACUGCCUCUCUGGAUUCCUCGUCACUCAGCGGGGCAUCUCUGAGAGAAAUGCC, the self-cleavage is 0.5.

UACGUAGGUGGUUUUCCCCUGAUAGUGCUAAGGGGGCCUGGAAGUUUGGACUGGGCAGAGCUCAACACAGCGUGGCAAAGUGGCUGUGGCUUGACUGCCUCUCUGGAUUCCUCGUCACUCAGCAGGGCAUCUCUGGGAGAAAUGCC: the self-cleavage came to 0.94.

For the variant UACGUAGGUGGUUUUCCCCUGAUAGUGCUAAGGGGGCCUGGAAGUUUGGACUGGGCAGAGCUCAACACAGCGUGGCAAAGUGGCUGUGGCUGGACUGCCUCUCUGGAUUCCUCGUCACUCAGCAGGGCAUGUCUGAGAGAAAUGCC, the self-cleavage came to 0.22.

On to UACGUAGGUGGUUUUCCCCUGAUAGUGCUAAGGGGGCCUGGAAGUUUGGACUGGGCAGAGCUCAACACAGCGUGGCAAAGUGGCUGUGGCUUGACUGCCUCUCUGGAUUCCUCGUCACUCAGCAGGGCAUCUCUGAGUGAAAUGCC, for which the self-cleavage worked out at 0.53.

Turning to UACGUAGGUGGUUUUCCCCUGAUAGUGCUAAGGGGGCCUGGAAGUUUGGACUGGGCAGAGCUCAACACAGCGUGGCAAAGUGGCUGUGGCUUGACUGCCUCUCUGGAUUCCUCGUCACUCAGCAGGGCAUCUCUGAGGGAAAUGCC, the self-cleavage came out at 0.75.

Turning to UACGUAGGUGGUUUUCCCCUGAUAGUGCUAAGGGGGCCUGGAAGUUUGGACUGGGCAGAGCUCAACACAGCGUGGCAAAGUGGCUGUGGCUGGACAGCCUCUCUGGAUUCCUCGUCACUCAGCAGGGCAUCUCUGAGAGAAAUGCC, the self-cleavage amounted to 0.13.

Source of the values: the RNAGym collection of RNA variant scans (doi:10.7554/elife.90254).
